In article doi:10.1101/2023.03.31.535174:

Molecular target: T1, AP2-I_D3 (AP2 domain 3) (Plasmodium falciparum, UniProt Q8IJW6 775-824)
T1 chain: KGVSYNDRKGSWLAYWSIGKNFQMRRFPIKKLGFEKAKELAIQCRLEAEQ
Assay: EMSA

B1: AGTGCATTA probe with distal shape mutations (series, up to six point mutations) (dsDNA)
DNA 1: GATAAAATGAGTAAAGTGCATTAAATGTTGTACACC
DNA 2: GGTGTACAACATTTAATGCACTTTACTCATTTTATC
binding result: binds
